Read-outs that look alike come from different tables or passages of the source.
Columns and labels:
[1] = Storage stability at different pH values, residual DON transformation activity; format: biochemical; settings: for Relative DON-transformation activity: storage at 30° C.
Procedure: (§1) To determine the transformation of DON to epi-THS by Akr I-III, described herein, the following assay was performed. An assay buffer was prepared containing 40 ppm DON, 1 mM NADPH in Teorell Stenhagen (TS) buffer, pH 6.0 (Östling and Virtama, Acta Physiologica Scandinavica, 1946, 11:4, 289-293). Tubes containing the assay buffer were transferred in a heating block at 30° C. The reaction was started by addition of Akr I-III to a final concentration of 200 nM in a final reaction volume of 200 μL. Samples were taken before reaction start, and 2, 5, 10, 15 and 20 min after reaction start. DON transformation reactions in these samples were stopped by mixing with absolute methanol at a 1:2 ratio, followed by a 1:100 dilution with 40% methanol. The concentrations of DON and epi-THS in the samples were determined with liquid chromatography-mass spectrometry (LC-MS) on a Sciex 5500 triple quadrupole mass spectrometer coupled to Agilent 1290 series UHPLC system, using the following MS parameters: Acquisition duration: 4 min; Scan Type: MRM (MRM); Polarity: Negative; Ion Source: Turbo Spray.
The storage stability of Akr I-III at different pH values was tested by incubating 1 μM enzyme in TS buffer solutions with a pH of 3.0-10.0 for 4 h at 30° C. in standard 1.5 ml Eppendorf tubes. Every hour, a DON transformation assay was conducted as described in Example 3. The starting activity at time 0 min was set to 100% and the relative residual activities were determined throughout the incubation. For the DON transformation assays, 80 μl of the storage solution were added to an assay reaction with a final volume of 400 μl, which corresponds to a 1:5 dilution of the storage solution. Akr I retained more than 93% activity during 4 hours at 30° C. from pH 4.0-10.0. Akr II retained 30% to 93% activity during 4 hours at 30° C. from pH […] retained 27% to 85% activity during 4 hours at 30° C. from pH 4.0-9.0. Akr I-III retained more than 40% of their activity for 4 hours at 30° C. from pH 4.0 to pH 8.0.

[2] = format: biochemical
Procedure: as §1
For LC, eluent A was 5% methanol, 94.9% water (ultrapure), 0.1% acetic acid, and eluent B was 99.9% methanol, 0.1% acetic acid, using a Phenomenex Kinetex 2.6 μm biphenyl 150×2.1 mm column, an injection volume of 1 μL and the protocol shown in Table 3.
By applying the DON transformation assay basically as described in Example 3, but at pH values ranging from pH 2 to pH 10, the pH optima for DON degradation of Akr I-III (SEQ ID NOs: 1-3) were determined. Akr I and Akr II reached maximum activities at pH 6.0, Akr III at pH 6.5.
By applying the DON transformation assay basically as described in Example 3, but at different temperatures ranging from 14.9° C. to 55.7° C., the temperature optima for the DON degradation activities of Akr I-III were determined. Akr I maximum activity was shown at approximately 35° C., Akr II at approximately 31° C., and Akr III at temperatures from approximately 28° C. to 33° C. (see FIG. 4). […] For Akr I even at temperatures below 20° C.

B1: Akr I: artificial amino acid sequence, variant of a wild type aldo-keto reductase (protein)
chain: MRTTEISQGLKVSNLCIGAGPLGGMPTAFGYDVSEERGIATVQAVFDSPINFMDTSSEYGDSEVRIGKVIREGRMPKGFVIATKADAEGDGTARRGDFSAKQVRASFELSLERLGLTHIDVYFLHDPEKFPFEHVMARGGAMEELLRLKDEGLVGLVGVAGGDVVEMARYVDTGNLDILLNYGRYTLLDRSADSLIDKASDAGMAFLNAGPYASGLLAAPRGGSAWYQYAPPNADALQAVDQLHELCESFDVSLRSVALQFSMRDPRITSTVVGLSRPERVRALLDDAAAEIPAELWDQLPAPLNLPWNSLA
modifications: ArkI
- retained activity ([1]; during 4 hours at 30° C. from pH 4.0-10.0): more than 93%
- Relative DON-transformation activity ([1]; pH 3.0, 0 h (starting activity set to 100%)): 100.0%
- Relative DON-transformation activity ([1]; pH 3.0, 1 h): 0.0%
- Relative DON-transformation activity ([1]; pH 3.0, 2 h): 0.0%
- Relative DON-transformation activity ([1]; pH 3.0, 3 h): 0.0%
- Relative DON-transformation activity ([1]; pH 3.0, 4 h): 0.0%
- Relative DON-transformation activity ([1]; pH 4.0, 0 h (starting activity set to 100%)): 100.0%
- Relative DON-transformation activity ([1]; pH 4.0, 1 h): 100.6%
- Relative DON-transformation activity ([1]; pH 4.0, 2 h): 102.8%
- Relative DON-transformation activity ([1]; pH 4.0, 3 h): 101.5%
- Relative DON-transformation activity ([1]; pH 4.0, 4 h): 93.8%
- Relative DON-transformation activity ([1]; pH 5.0, 0 h (starting activity set to 100%)): 100.0%
- Relative DON-transformation activity ([1]; pH 5.0, 1 h): 101.0%
- Relative DON-transformation activity ([1]; pH 5.0, 2 h): 101.6%
- Relative DON-transformation activity ([1]; pH 5.0, 3 h): 100.8%
- Relative DON-transformation activity ([1]; pH 5.0, 4 h): 97.9%
- Relative DON-transformation activity ([1]; pH 6.0, 0 h (starting activity set to 100%)): 100.0%
- Relative DON-transformation activity ([1]; pH 6.0, 1 h): 100.6%
- Relative DON-transformation activity ([1]; pH 6.0, 2 h): 101.9%
- Relative DON-transformation activity ([1]; pH 6.0, 3 h): 101.1%
- Relative DON-transformation activity ([1]; pH 6.0, 4 h): 100.7%
- Relative DON-transformation activity ([1]; pH 7.0.0, 0 h (starting activity set to 100%)): 100.0%
- Relative DON-transformation activity ([1]; pH 7.0.0, 1 h): 99.6%
- Relative DON-transformation activity ([1]; pH 7.0.0, 2 h): 101.4%
- Relative DON-transformation activity ([1]; pH 7.0.0, 3 h): 99.7%
- Relative DON-transformation activity ([1]; pH 7.0.0, 4 h): 96.1%
- Relative DON-transformation activity ([1]; pH 8.0, 0 h (starting activity set to 100%)): 100.0%
- Relative DON-transformation activity ([1]; pH 8.0, 1 h): 101.5%
- Relative DON-transformation activity ([1]; pH 8.0, 2 h): 102.4%
- Relative DON-transformation activity ([1]; pH 8.0, 3 h): 101.1%
- Relative DON-transformation activity ([1]; pH 8.0, 4 h): 101.2%
- Relative DON-transformation activity ([1]; pH 9.0.0, 0 h (starting activity set to 100%)): 100.0%
- Relative DON-transformation activity ([1]; pH 9.0.0, 1 h): 100.9%
- Relative DON-transformation activity ([1]; pH 9.0.0, 2 h): 101.0%
- Relative DON-transformation activity ([1]; pH 9.0.0, 3 h): 100.8%
- Relative DON-transformation activity ([1]; pH 9.0.0, 4 h): 96.6%
- Relative DON-transformation activity ([1]; pH 10.0, 0 h (starting activity set to 100%)): 100.0%
- Relative DON-transformation activity ([1]; pH 10.0, 1 h): 100.5%
- Relative DON-transformation activity ([1]; pH 10.0, 2 h): 101.4%
- Relative DON-transformation activity ([1]; pH 10.0, 3 h): 99.8%
- Relative DON-transformation activity ([1]; pH 10.0, 4 h): 96.0%
- temperature of maximum DON degradation activity (temperature optimum) ([2]; 14.9° C. to 55.7° C. tested): approximately 35 °C
- DON degradation ([2]; 14.9° C., after 20 min of incubation): complete DON degradation
- pH of maximum DON degradation activity (pH optimum) ([2]; pH 2 to pH 10 tested, 30° C.): 6.0
- DON degradation ([2]; pH 4.0, after 30 min): complete degradation
